From patent US20210380703A1 (RIGEL PHARMACEUTICALS, published 2021)

Assays:
Goat anti-Human Kappa = target: T1, Goat anti-Human Kappa; experiment: ELISA, positive control
T1 construct: Positive control of the ELISA; also called biotinylated goat anti-human kappa light chain
Outline: (§1)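 Binding signal was read by ELISA after ACVR2A-specific monoclonal antibodies were tested against human ACVR2A and mouse ACVR2A, with human Fc as the negative control.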

Mouse ACVR2A = Mouse ACVR2A (mouse, UniProt P27038 20-135, limits assumed); experiment: ELISA
Sequence of Mouse ACVR2A (P27038 20-135 limits assumed): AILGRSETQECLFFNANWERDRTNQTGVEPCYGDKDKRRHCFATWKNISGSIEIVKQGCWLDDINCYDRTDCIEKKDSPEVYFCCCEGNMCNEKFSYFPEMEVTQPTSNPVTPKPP
Outline: as §1

Human ACVR2A = target: T2, Human ACVR2A (human, UniProt P27037 20-135, limits assumed); experiment: ELISA
T2 construct: also called activin receptor, type II A
T2 sequence (P27037 20-135 limits assumed): as the sequence (P27038 20-135 limits assumed) above, with R20K, I73V counted along it
Outline: as §1
Note: test concentration or dose not given here.

optical density (Goat anti-Human Kappa) [OD] | optical density (Mouse ACVR2A) [OD] | optical density (Human ACVR2A) [OD] | Binder
3.54 | 3.52 | 3.6 | 369_C02 (antibody, V domains shown) VH: EVQLLESGGGLVQPGGSLRLSCAASGFTFDSYSMNWVRQAPGKGLEWVSNINYNGGYKSYADSVKGRFTISRDNSKNTLYLQMNSLRAEDTAVYYCARSANWHDTALDYWGQGTLVTVSS VL: DIQMTQSPSSLSASVGDRVTITCRASQSILTYLNWYQQKPGKAPKLVIYAATSRASGVPSRFSGSGSGTDFTLTISSLQPEDFATYYCQQSYELPLTFGGGTKVEIK
3.52 | 3.65 | 3.37 | 369_C03 (antibody, V domains shown) VH: EVQLLESGGGLVQPGGSLRLSCAASGFTFSSYGMNWVRQAPGKGLEWVSNINYNGGYKSYADSVKGRFTISRDNSKNTLYLQMNSLRAEDTAVYYCARSANWHDTALDYWGQGTLVTVSS VL: DIQMTQSPSSLSASVGDRVTITCRASQSILTYLNWYQQKPGKAPKLVIYAATSRASGVPSRFSGSGSGTDFTLTISSLQPEDFATYYCQQSYDSPLTFGGGTKVEIK
3.49 | 3.46 | 3.15 | 369_A02 (antibody, V domains shown) VH: EVQLLESGGGLVQPGGSLRLSCAASGFTFSSYSMNWVRQAPGKGLEWVAGINYNSGYTGYADSVKGRFTISRDNSKNTLYLQMNSLRAEDTAVYYCARSANWHDTHLDYWGQGTLVTVSS VL: DIQMTQSPSSLSASVGDRVTITCRASQSILSYVNWYQQKPGKAPKLLIYAATSRASGVPSRFSGSGSGTDFTLTISSLQPEDFATYYCQQSYDLPLTFGGGTKVEIK
3.59 | 3.46 | 3.36 | 369_B01 (antibody, V domains shown) VH: EVQLLESGGGLVQPGGSLRLSCAASGFTFSSYSMNWVRQAPGKGLEWVSGINYNGGYTSYADSVKGRFTISRDNSKNTLYLQMNSLRAEDTAVYYCARSANWHDTALDYWGQGTLVTVSS VL: DIQMTQSPSSLSASVGDRVTITCRASQSILSYLNWYQQKPGKAPKLLIYAVTSRASGVPSRFSGSGSGTDFTLTISSLQPEDFATYYCQQSYENPLTFGGGTKVEIK
2.46 | 1.65 | 1.64 | 369_C04 (antibody, V domains shown) VH: EVQLLESGGGLVQPGGSLRLSCAASGFTFSSYSMNWVRQAPGKGLEWVSNINYNGGYTGYADSVKGRFTISRDNSKNTLYLQMNSLRAEDTAVYYCARSANWHDTALDYWGQGTLVTVSS VL: DIQMTQSPSSLSASVGDRVTITCRASQSILTYVNWYQQKPGKAPKLLIYTTTSLHSGVPSRFSGSGSGTDFTLTISSLQPEDFATYYCQQSYNNPLTFGGGTKVEIK
3.51 | 1.36 | 1.06 | 368_H04 (antibody, V domains shown) VH: EVQLLESGGGLVQPGGSLRLSCAASGFTFSSYSMNWVRQAPGKGLEWVAGINYNSGYKGYADSVKGRFTISRDNSKNTLYLQMNSLRAEDTAVYYCAKSANWHDTHLDYWGQGTLVTVSS VL: DIQMTQSPSSLSASVGDRVTITCRASQSIVSYVNWYQQKPGKAPKLLIYAATSRASGVPSRFSGSGSGTDFTLTISSLQPEDFATYYCQQSYDSPLTFGGGTKVEIK

More lines, now with the values behind:

Binder | optical density (Goat anti-Human Kappa) [OD] | optical density (Mouse ACVR2A) [OD] | optical density (Human ACVR2A) [OD]
368_E02 (antibody, V domains shown) VH: EVQLLESGGGLVQPGGSLRLSCAASGFTFDSYSMNWVRQAPGKGLEWVAGINYNSGYTSYADSVKGRFTISRDNSKNTLYLQMNSLRAEDTAVYYCARSANWHDTHLDYWGQGTLVTVSS VL: DIQMTQSPSSLSASVGDRVTITCRASQSILTYLNWYQQKPGKAPKLLIYAATSRASGVPSRFSGSGSGTDFTLTISSLQPEDFATYYCQQSYSSPLTFGGGTKVEIK | 3.68 | 2.79 | 2.5
368_G12 (antibody, V domains shown) VH: EVQLLESGGGLVQPGGSLRLSCAASGFTFSSYGMNWVRQAPGKGLEWVASINYNSGYTGYADSVKGRFTISRDNSKNTLYLQMNSLRAEDTAVYYCARSANWHDTALDYWGQGTLVTVSS VL: DIQMTQSPSSLSASVGDRVTITCRASQSISSYVNWYQQKPGKAPKLVIYAVTSRASGVPSRFSGSGSGTDFTLTISSLQPEDFATYYCQQSYETPLTFGGGTKVEIK | 3.52 | 2.54 | 2.46
368_F03 (antibody, V domains shown) VH: EVQLLESGGGLVQPGGSLRLSCAASGFTFDSYSMNWVRQAPGKGLEWVAGINYNSGYTGYADSVKGRFTISRDNSKNTLYLQMNSLRAEDTAVYYCAKSANWHDTALDYWGQGTLVTVSS VL: DIQMTQSPSSLSASVGDRVTITCRASQSIISYLNWYQQKPGKAPKLVIYAATSRHSGVPSRFSGSGSGTDFTLTISSLQPEDFATYYCQQSYDSPLTFGGGTKVEIK | 3.6 | 2.6 | 2.35
368_E07 (antibody, V domains shown) VH: EVQLLESGGGLVQPGGSLRLSCAASGFTFSSYGMNWVRQAPGKGLEWVAGINYNGGYTSYADSVKGRFTISRDNSKNTLYLQMNSLRAEDTAVYYCAKSANWHDTALDYWGQGTLVTVSS VL: DIQMTQSPSSLSASVGDRVTITCRASQSILSYLNWYQQKPGKAPKLLIYAVTSRASGVPSRFSGSGSGTDFTLTISSLQPEDFATYYCQQSYENPLTFGGGTKVEIK | 3.45 | 1.17 | 1.07
368_G01 (antibody, V domains shown) VH: EVQLLESGGGLVQPGGSLRLSCAASGFTFSDYGMHWVRQAPGKGLEWVASINYNSGYTSYADSVKGRFTISRDNSKNTLYLQMNSLRAEDTAVYYCARSANWHDTALDYWGQGTLVTVSS VL: DIQMTQSPSSLSASVGDRVTITCRASQSILTYLNWYQQKPGKAPKLVIYAATSRASGVPSRFSGSGSGTDFTLTISSLQPEDFATYYCQQSYNLPLTFGGGTKVEIK | 3.62 | 2.82 | 2.65
368_F11 (antibody, V domains shown) VH: EVQLLESGGGLVQPGGSLRLSCAASGFTFSDYGMNWVRQAPGKGLEWVSGINYNGGYTSYADSVKGRFTISRDNSKNTLYLQMNSLRAEDTAVYYCARSANWHDTHLDYWGQGTLVTVSS VL: DIQMTQSPSSLSASVGDRVTITCRASQSIVSYVNWYQQKPGKAPKLVIYAATSRASGVPSRFSGSGSGTDFTLTISSLQPEDFATYYCQQSYNNPLTFGGGTKVEIK | 3.53 | 2.73 | 2.58
368_E04 (antibody, V domains shown) VH: EVQLLESGGGLVQPGGSLRLSCAASGFTFSSYSMNWVRQAPGKGLEWVANINYNSGYTGYADSVKGRFTISRDNSKNTLYLQMNSLRAEDTAVYYCARSANWHDTALDYWGQGTLVTVSS VL: DIQMTQSPSSLSASVGDRVTITCRASQSILSYVNWYQQKPGKAPKLLIYAATSRHSGVPSRFSGSGSGTDFTLTISSLQPEDFATYYCQQSYDNPLTFGGGTKVEIK | 3.48 | 3.23 | 3.08
368_E06 (antibody, V domains shown) VH: EVQLLESGGGLVQPGGSLRLSCAASGFTFSDYGMHWVRQAPGKGLEWVSGINYNGGYTGYADSVKGRFTISRDNSKNTLYLQMNSLRAEDTAVYYCARSANWHDTALDYWGQGTLVTVSS VL: DIQMTQSPSSLSASVGDRVTITCRASQSILSYLNWYQQKPGKAPKLVIYGATSRASGVPSRFSGSGSGTDFTLTISSLQPEDFATYYCQQSYDSPLTFGGGTKVEIK | 3.5 | 2.34 | 2.33
